These results are taken from paper PMC3669275.

Test [1] addresses HIV-1 HXB2 Env (gp160; gp41) expressed on CHO-Env cells (HIV-1 HXB2) (UniProt P04578).
For test [2] the target is unchanged. The source holds these as a separate data set.
The target in test [3] is 3NC, recombinant protein with a triplicate N36-GGSGG-C34 (HIV-1). Description: SPR; BIACORE X; 3NC (100 µg/ml) amine-coupled to a CM5 chip; C60 or POB1 (333–461) injected at 20 µl/min; 10 mM HEPES pH 7.4, 0.15 M NaCl, 3.4 mM EDTA, 0.005% P20. Background: Surface plasmon resonance follows binding to a sensor surface in real time, without labels.

What is called Kd is the free concentration of one partner at which half of the binding sites on the other are occupied at equilibrium, for simple one-to-one binding. In test [1], “C60, recombinant POB1 (462–521) (domain or fragment)” showed an IC50 of inhibition of infection of MT-2 cells by HIV-1 IIIB (X4-tropic), p24 ELISA of 15.3 µM and an IC50 of inhibition of infection of TZM-bl cells by HIV-1 Bal (R5-tropic; the Env is that of strain Bal), luciferase of 9.21 µM. For the same substance, in test [2], the IC50 of inhibition of HIV-1 Env-mediated cell-cell fusion (syncytium formation, CHO-Env with 3T3.T4.CXCR4 cells) turned out to be 1.09 µM. Moreover, the Kd in test [3] is 0.0155 µM.
